Measurements as given in patent CN113583125A (SUZHOU CENTERGENE PHARMACEUTICALS CO LTD, dated 2021).
Numbering of substitutions follows the chain as printed. Blank lines part the entries; values can stand above or below the binder they belong to.

How the values were obtained:
[1] = target: T1, SEQ ID NO:1蛋白 (FSH、hCG、TSH、FSH-CTP和hLH共同α链) (Homo sapiens (Human), UniProt P01215 25-116); test: Phage ELISA screen, VHH displayed on phage
T1 construct: Immunogen for the alpaca and target of the Phage ELISA screen

hCG (人绒毛膜促性腺激素) = target: T2, hCG (人绒毛膜促性腺激素) (human, UniProt P0DN86 21-165); test: affinity chromatography, VHH coupled to CNBr-agarose, hCG from CHO supernatant, elution at pH 3, SDS-PAGE
T2 construct: In the resin experiments hCG comes from the supernatant of CHO cells that express it stably

FSH (卵泡刺激素) [2] = target: T3, FSH (卵泡刺激素) (human, UniProt P01225 19-129); test: ELISA, plate coated with 10 ug/ml FSH, VHH from 1 mg/ml in 2-fold steps, detection with anti-6xHis-HRP
T3 construct: also called hFSH

hLH (人促黄体生成素) = hLH (人促黄体生成素) (human, UniProt P01229 21-141); test: affinity purification on VHH-agarose (CNBr), SDS-PAGE of the eluate
FSH (卵泡刺激素) [3] = target: T3, FSH (卵泡刺激素); test: as above

T2 sequence (chain, as listed by the source, chain 1 of 2, other chains not shown): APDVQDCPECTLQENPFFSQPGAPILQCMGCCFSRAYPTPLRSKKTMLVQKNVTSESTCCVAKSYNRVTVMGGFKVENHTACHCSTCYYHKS
T1 sequence (P01215 25-116 limits assumed): as the sequence (chain, as listed by the source, chain 1 of 2, other chains not shown) above
Sequence of hLH (人促黄体生成素) (chain, as listed by the source, chain 1 of 2): as the sequence (chain, as listed by the source, chain 1 of 2, other chains not shown) above
Sequence of hLH (人促黄体生成素) (P01229 21-141, chain 2 of 2): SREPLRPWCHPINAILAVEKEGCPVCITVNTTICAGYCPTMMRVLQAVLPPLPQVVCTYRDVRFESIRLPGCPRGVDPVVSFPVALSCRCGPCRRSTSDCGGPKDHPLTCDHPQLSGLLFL
T3 sequence (chain, as listed by the source, chain 1 of 2): as the sequence (chain, as listed by the source, chain 1 of 2, other chains not shown) above
T3 sequence (P01225 19-129, chain 2 of 2): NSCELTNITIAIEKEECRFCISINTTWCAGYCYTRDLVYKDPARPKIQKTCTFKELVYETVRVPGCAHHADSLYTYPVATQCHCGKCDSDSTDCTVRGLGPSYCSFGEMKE

binding result [1]: binds
binding result (FSH (卵泡刺激素) [2]): binds
binding result (hLH (人促黄体生成素)): binds
B3: SEQ ID NO:17蛋白 (VHH-sgs-HHHHHH) (VHH)
VHH: QVQLVESGGGLVQTGGSLRLSCAASGRTFSSYAMGWFRQAPGEEREAVAALSWSGGSTYYAASVQGRFTISRDNAKNTVYLQMNSLKPEDTAVYYCAARDRADGSSWWDYWGQGTQVTVSS
notes: In the resin experiments it is coupled to agarose

binding result (FSH (卵泡刺激素) [3]): binds
binding result (hLH (人促黄体生成素)): binds
B5: SEQ ID NO:11蛋白 (1G9E突变体, VHH-sgs-HHHHHH) (VHH)
VHH: QVQLQESGGGLVQAGGSLRLSCAASGRTGSTYDMGWFRQAPGKERESVAAINWDSARTHYASSVRGRFTISRDNAKKTVYLQMNSLKPEDTAVYTCGAGEGGTWDSWGQGTQVTVSS
notes: Expressed in E. coli BL21 Star(DE3) and purified on nickel; In the resin experiments it is coupled to agarose

Further lines, the binder ahead of its results:

B1: SEQ ID NO:16蛋白 (VHH-sgs-HHHHHH) (VHH)
VHH: B3 VHH with L4V, T14A, G16D, E43K, L51I, S52T, A62D, Q65K, A75T
binding result [1]: binds
binding result (hCG (人绒毛膜促性腺激素)): binds

B2: SEQ ID NO:18蛋白 (VHH-sgs-HHHHHH) (VHH)
VHH: B3 VHH with L51I, S52T
binding result [1]: binds
binding result (hCG (人绒毛膜促性腺激素)): binds

B4: 1G9E (SEQ ID NO:12, VHH-sgs-HHHHHH) (VHH)
VHH: B5 VHH with H59Y
binding result (hCG (人绒毛膜促性腺激素)): binds
